According to patent publication US20250186597A1, “TARGETED IMMUNE ACTIVATION WITH IL-18 IMMUNOCYTOKINES” (BRIGHT PEAK THERAPEUTICS AG, priority 2023, published 2025):
Where a chain is given by its changes, count along the chain named. Names and notes keep the numbering of the source.

T1: human IL-18BP (Homo sapiens, UniProt O95998)
T1 construct: His
T1 sequence (O95998 31-194): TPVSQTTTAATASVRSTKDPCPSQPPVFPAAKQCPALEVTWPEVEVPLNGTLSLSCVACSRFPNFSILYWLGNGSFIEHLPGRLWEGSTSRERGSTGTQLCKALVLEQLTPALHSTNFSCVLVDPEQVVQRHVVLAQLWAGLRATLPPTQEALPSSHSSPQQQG

B1: 42 (protein)
chain: YFGKLKSKLSVIRNLNDQVLFIDQGNRPLFEDMTDSDCRDNAPRTIFIISMYADAQPRGMAVAISVKCEKISTLSCENKIISFKEMNPPDNIKDTKSDIIFFQRSVPGHDNKMQFESSSYEGYFLACEKERDLFKLILKKEDELGDRSIMFTVQNED
B2: C149: IL-18 polypeptide: V11I, E31A, C38A, K53A, C76A, C127A (protein)
chain: B1 chain with K6E, V11I, E31A, C38A, A55S, A63T, C76A, C127A
B3: 49 (protein)
chain: B1 chain with C38S, A63T, C68S, K70C, C76S, C127S
B4: 6 (protein)
chain: B1 chain with V11I, C38A, A55S, C68A, C76A, D98C, C127A
B5: 48 (protein)
chain: B1 chain with K6E, C38S, A53K, A55S, A63T, C68S, K70C, C76S, C127S
B6: 55 (protein)
chain: B1 chain with K6E, C38S, A55S, C68S, K70C, C76S, C127S
B7: 54 (protein)
chain: B1 chain with C38S, A55S, A63T, C68S, K70C, C76S, C127S
B8: C153: IL-18 polypeptide: V11I, D37A, C38A, K53A, C76A, C127A (protein)
chain: B1 chain with K6E, V11I, D37A, C38A, A55S, A63T, C76A, C127A
B9: 47 (protein)
chain: B1 chain with K6E, C38S, A53K, A55S, A63T, C68S, C76S, C127S
B10: C147: IL-18 polypeptide: V11I, C38A, K53A, D54A, C76A, C127A (protein)
chain: B1 chain with K6E, V11I, C38A, D54A, A55S, A63T, C76A, C127A
B11: 5 (protein)
chain: B1 chain with V11I, C38A, A55S, C68A, C76A, M86C, C127A
B12: C152: IL-18 polypeptide: V11I, S36A, C38A, K53A, C76A, C127A (protein)
chain: B1 chain with K6E, V11I, S36A, C38A, A55S, A63T, C76A, C127A
B13: C151: IL-18 polypeptide: V11I, D35A, C38A, K53A, C76A, C127A (protein)
chain: B1 chain with K6E, V11I, D35A, C38A, A55S, A63T, C76A, C127A
B14: 50 (protein)
chain: B1 chain with A55S
B15: 46 (protein)
chain: B1 chain with M51G, A63T
B16: SEQ ID NO: 68: IL-18 polypeptide: V11I, C38A, M51G, K53A, C76A, C127A (protein)
chain: B1 chain with K6E, V11I, C38A, M51G, A55S, A63T, C76A, C127A
B17: C148: IL-18 polypeptide: F2A, V11I, C38A, K53A, C76A, C127A (protein)
chain: B1 chain with F2A, K6E, V11I, C38A, A55S, A63T, C76A, C127A
B18: 57 (protein)
chain: B1 chain with C38S, A55S, A63T
B19: C143: IL-18 polypeptide: V11I, C38A, K53A, C76A, C127A (protein)
chain: B1 chain with K6E, V11I, C38A, A55S, A63T, C76A, C127A
B20: C144: IL-18 polypeptide: V11I, C38A, K53A, T63A, C76A, C127A (protein)
chain: B1 chain with K6E, V11I, C38A, A55S, C76A, C127A
B21: C145: IL-18 polypeptide: V11I, C38A, K53A, S55A, C76A, C127A (protein)
chain: B1 chain with K6E, V11I, C38A, A63T, C76A, C127A
B22: C150: IL-18 polypeptide: V11I, T34A, C38A, K53A, C76A, C127A (protein)
chain: B1 chain with K6E, V11I, T34A, C38A, A55S, A63T, C76A, C127A

These molecules were tested on NK-92 cells (assay: IFNγ induction cellular assay in NK-92 cells (Example 4, used in Example 22C)). Settings: IFNg stimulation in NK92 cells.
Format: cell-based, human
Procedure: The ability of immunocytokines and IL-18 polypeptides provided herein are assessed for ability to induce IFN[…] in a cellular assay according to the protocol below.
The NK cell line NK-92 derived from a patient with lymphoma (ATCC® CRL-2407™) is cultured in aMEM medium supplemented with 20% FCS, Glutamax, 25 µM B-mercaptoethanol, and 100 IU/mL of recombinant human IL-2.
On the day of experiment, cells are harvested and washed with aMEM medium without IL-2 and containing 1 ng/mL of recombinant human IL-12. After counting, cells are seeded at 100,000 cells/well in a 384 well titer plate and incubated at 37° C./5% CO2. Sixteen 4-fold serial dilutions of IL-18 analytes are prepared in aMEM medium, and 1 ng/mL of IL-12 were added to the NK-92 cells. Final IL-18 analyte concentrations range from 56 nM to 5×10^−5 pM.
After incubating the cells for 16-20 hr at 37° C./5% CO2, 5 μL of supernatant is carefully transferred to a 384 microwell OptiPlate. IFNγ levels are measured using a human IFNγ AlphaLISA Assay Kit. Briefly, 10 μL of 2.5× AlphaLISA Anti-IFNγ acceptor beads and biotinylated antibody anti-IFNγ mix are added to the 5 μL of NK-92 supernatants. The mixtures are incubated for 1 hr at room temperature with shaking. Under subdued light, 2.5 μL of 2× streptavidin (SA) donor beads are pipetted into each well, and the wells are incubated for 30 min at room temperature with shaking. AlphaLISA signals are then measured on an EnSpire™ plate reader using 680 nm and 615 nm as excitation and emission wavelengths, respectively. Half maximal effective concentrations (EC50) are calculated based on a variable slope and four parameter analysis using GraphPad PRISM software.
(§1) The experiments described in Example 4 for determination of IFNg stimulation in NK92 cells (and inhibition by IL-18 BP) were performed substantially as described on IL-18 polypeptides in order to assess their activities and their suitability for incorporation into immunocytokine compositions. It is expected that the IL-18 polypeptides provided below would behave analagously to C086 (SEQ ID NO: 30) when incorporated into an immunocytokine composition as those otherwise provided herein.

EC50 [nM]	Molecule
0.144	B1
0.187	B2
58.5	B3
1.37	B4
0.488	B5
17.2	B6
0.962	B7
0.175	B8
0.115	B9
0.079	B10
0.075	B11
0.033	B12
0.061	B13
0.0268	B14
7.4	B15
0.037	B16
0.256	B17
0.045	B18
0.138	B19
0.012	B20
0.087	B21
0.015	B22

Each molecule was assayed on NK-92 cells (assay: IL-18 binding protein inhibition cellular assay in NK-92 cells (Example 4, used in Example 22C)). Settings: inhibition by IL-18BP of IFNg stimulation in NK92 cells.
Format: cell-based, human
Procedure: The NK cell line NK-92 derived from a patient with lymphoma (ATCC® CRL-2407™) is cultured in aMEM medium supplemented with 20% FCS-Glutamax, 25 µM B-mercaptoethanol, and 100 IU/mL of recombinant human IL-2.
On the day of experiment, cells are harvested and washed with aMEM medium without IL-2 and containing 1 ng/mL of recombinant human IL-12. After counting, the cells are seeded at 100,000 cells/well in a 384 well titer plate and incubated at 37° C./5% CO2. Sixteen 2-fold serial dilutions of Fc-fused human IL-18 binding protein isoform a (IL-18BPa) are prepared in aMEM medium. 1 ng/mL of IL-12 containing 2 nM of each IL-18 polypeptide variant is added to the NK-92 cells. The final IL-18 analyte concentration is 1 nM, and the final IL-18BPa concentration ranged from 566 nM to […].
After incubating the cells for 16-20 hr at 37° C./5% CO2, 5 μL of the supernatant is carefully transferred to a 384 microwell OptiPlate. IFNγ levels are measured using a human IFNγ AlphaLISA Assay Kit. Briefly, 10 μL of 2.5× AlphaLISA anti-IFNγ acceptor beads and biotinylated antibody anti-IFNγ mix are added to 5 μL of NK-92 supernatants. The mixtures are incubated for 1 hr at room temperature with shaking. Under subdued light, 2.5 μL of 2×SA donor beads are pipetted in each well and incubated for 30 min at room temperature with shaking. AlphaLISA signals are then measured on an EnSpire™ plate reader using 680 nm and 615 nm as excitation and emission wavelengths, respectively. Half maximal inhibitory concentrations (IC50) are calculated based on a variable slope and four parameter analysis using GraphPad PRISM software.
as §1

IC50 [nM]	Molecule
1060	B1
1.17	B2
5.85	B4
0.114	B5
> 1000	B6
23.5	B7
2.22	B8
0.444	B9
47.6	B10
62.4	B11
7.85	B12
3.62	B13
> 1000	B14
0.189	B15
733	B16
5.05	B17
146	B18
1.62	B19
7.52	B20
10.2	B21
21.3	B22

The molecules below were run against T1, human IL-18BP (assay: IL-18BP binding alphaLISA assay (Example 4, used in Example 22B)). Settings: IL-18BP AlphaLISA.
Procedure: A human IL-18BP AlphaLISA Assay Kit is used to determine the binding affinity of each immunocytokine and IL-18 variant for IL-18BP, which detected the presence of free form IL-18BP.
Sixteen three-fold serial dilutions of IL-18 analytes are prepared in aMEM medium supplemented with 20% FCS, Glutamax, and 25 µM β-mercaptoethanol in the presence of 5 ng/mL of His-tagged human IL-18BP. Final IL-18 analytes concentration range from 2778 nM to […].
After 1 hr incubation at room temperature, free IL-18BP levels are measured using a […]. In a 384 well OPTIplate, 5 μL of 5× Anti-IL-18BP acceptor beads are added to 7.5 μL of an IL-18/IL-18BP mix. After 30 min incubation at room temperature with shaking, 5 μL of biotinylated Anti-IL-18BP antibodies are added to each well. The plate is incubated further for 1 hr at room temperature. Under subdued light, 12.5 μL of 2× streptavidin (SA) donor beads are pipetted into each well, and the wells are incubated with shaking for an additional 30 min at room temperature. The AlphaLisa signal is then measured on an Enspire plate reader with 680 and 615 nm as excitation and emission wavelengths, respectively. The dissociation constant (KD) is calculated based on a variable slope, four parameter analysis using GraphPad PRISM software.
An IL-18 binding protein AiphaLISA experiment substantially as described in Example 4 was performed on IL-18 polypeptide which can be incorporated into immunocytokine compositions as provided herein to assess ability to bind to IL-181BP. It is expected that the IL-18 polypeptides provided below would behave analogously to C086 (SEQ ID NO: 30) when incorporated into an immunocytokine composition as those otherwise provided herein.

Kd [nM]	Molecule
822	B1
0.64	B2
> 1000	B3
0.21	B5
913	B6
446	B7
4.55	B8
0.03	B9
25.8	B10
1.12	B12
2.88	B13
340	B14
> 1000	B15
373	B16
57.2	B17
50.2	B18
8.86	B19
0.66	B20
9.74	B21
1.24	B22
